B1: 1.11-6GS-2.1 (bispecific antibody, not shown: small tags and cut ends)
chain: EVQLLESGGGLVQPGGSLRLSCAASGFSFSSYALSWVRQAPGKGLEWVSSIGENNDTTDYADNVKGRFTISRDNSKNTLYLQMNSLRVEDTAVYYCVKDGVHWGQGTLVTVSSGGGGSGGGGSGGGGSGGGGSGGGGSGGGGSEVQLVESGGGVVQPGRSLRLSCAASGFSFSGYGMHWVRQAPGKGLEWVAYISYDGSNKYYADSVKGRFTISRDNSKNTLYLQMNSLRAEDTAVYYCAKDPAWGLRLGESSSYDFDIWGQGTMVTVSS
B2: 1.16-6GS-2.17 (bispecific antibody, not shown: small tags and cut ends)
chain: B1 chain with D56H, N63T, G198A, S206N
B3: 1.18-6GS-2.17 (bispecific antibody, not shown: small tags and cut ends)
chain: B1 chain with D56A, D62A, N63S, G198A, S206N
B4: 1.16-6GS-2.1 (bispecific antibody, not shown: small tags and cut ends)
chain: B1 chain with D56H, N63T
B5: 1.11-6GS-2.22 (bispecific antibody, not shown: small tags and cut ends)
chain: B1 chain with M177T, D205A, S206P, P243A
B6: 1.18-6GS-2.1 (bispecific antibody, not shown: small tags and cut ends)
chain: B1 chain with D56A, D62A, N63S
B7: 1.16-6GS-2.22 (bispecific antibody, not shown: small tags and cut ends)
chain: B1 chain with D56H, N63T, M177T, D205A, S206P, P243A
B8: 1.18-6GS-2.22 (bispecific antibody, not shown: small tags and cut ends)
chain: B1 chain with D56A, D62A, N63S, M177T, D205A, S206P, P243A
B9: 1.11-6GS-2.17 (bispecific antibody, not shown: small tags and cut ends)
chain: B1 chain with G198A, S206N
B10: 1.18-6GS-2.15 (bispecific antibody, not shown: small tags and cut ends)
chain: B1 chain with D56A, D62A, N63S, M177L, G198K, S206K
B11: 1.1-6GS-2.22 (bispecific antibody, not shown: small tags and cut ends)
chain: B1 chain with L34M, N55D, D56G, N63S, N77S, T78M, M177T, D205A, S206P, P243A
B12: 1.1-6GS-2.15 (bispecific antibody, not shown: small tags and cut ends)
chain: B1 chain with L34M, N55D, D56G, N63S, N77S, T78M, M177L, G198K, S206K
B13: 1.1-6GS-2.1 (bispecific antibody, not shown: small tags and cut ends)
chain: B1 chain with L34M, N55D, D56G, N63S, N77S, T78M
B14: 1.16-6GS-2.15 (bispecific antibody, not shown: small tags and cut ends)
chain: B1 chain with D56H, N63T, M177L, G198K, S206K
B15: 1.1-6GS-2.17 (bispecific antibody, not shown: small tags and cut ends)
chain: B1 chain with L34M, N55D, D56G, N63S, N77S, T78M, G198A, S206N
B16: 1.11-6GS-2.15 (bispecific antibody, not shown: small tags and cut ends)
chain: B1 chain with M177L, G198K, S206K
B17: HiPEG D-His6 val-cit-PAB-MMAE (other)
VH: EVQLLESGGGLVQPGGSLRLSCAASGFRISDEDMGWVRQAPGKGLEWVSSIYGPSGSTYYADSVKGRFTISRDNSKNTLYLQMNSLRAEDTAVYYCASALEPLSEPLGFWGQGTLVTVSSAAAHHHHHH
modifications: HiPEG val-cit-PAB-MMAE attached via the C-terminal His6 tag
B18: single VH domain antibody 9.1 (VHH)
VHH: QVQLQQWGAGLLKPSETLSLTCAVYGGSFSGHYWSWIRQPPGKGLEWIGDINHSGSTNYNPSLKSRVTISVDTSKNQFSLKLSSVTAADTAVYYCVRDYGDSRSLFDYWGQGTLVTVSS
notes: human single VH domain (Humabody); not shown: C-terminal His tag
B19: single VH domain antibody 8.1 (VHH)
VHH: QVQLQQWGAGLLKPSETLSLTCAVYGGSFSGYYWSWIRQPPGKGLEWIGEINHSGSTNYNPSLKSRVTISVDTSKNQFSLKLSSVTAADTAVYYCARGPIPATAIPDAFDIWGQGTMVTVSS
notes: as for B18

Changes are numbered by the printed parent chain.

T1 sequence (Q04609 whole entry): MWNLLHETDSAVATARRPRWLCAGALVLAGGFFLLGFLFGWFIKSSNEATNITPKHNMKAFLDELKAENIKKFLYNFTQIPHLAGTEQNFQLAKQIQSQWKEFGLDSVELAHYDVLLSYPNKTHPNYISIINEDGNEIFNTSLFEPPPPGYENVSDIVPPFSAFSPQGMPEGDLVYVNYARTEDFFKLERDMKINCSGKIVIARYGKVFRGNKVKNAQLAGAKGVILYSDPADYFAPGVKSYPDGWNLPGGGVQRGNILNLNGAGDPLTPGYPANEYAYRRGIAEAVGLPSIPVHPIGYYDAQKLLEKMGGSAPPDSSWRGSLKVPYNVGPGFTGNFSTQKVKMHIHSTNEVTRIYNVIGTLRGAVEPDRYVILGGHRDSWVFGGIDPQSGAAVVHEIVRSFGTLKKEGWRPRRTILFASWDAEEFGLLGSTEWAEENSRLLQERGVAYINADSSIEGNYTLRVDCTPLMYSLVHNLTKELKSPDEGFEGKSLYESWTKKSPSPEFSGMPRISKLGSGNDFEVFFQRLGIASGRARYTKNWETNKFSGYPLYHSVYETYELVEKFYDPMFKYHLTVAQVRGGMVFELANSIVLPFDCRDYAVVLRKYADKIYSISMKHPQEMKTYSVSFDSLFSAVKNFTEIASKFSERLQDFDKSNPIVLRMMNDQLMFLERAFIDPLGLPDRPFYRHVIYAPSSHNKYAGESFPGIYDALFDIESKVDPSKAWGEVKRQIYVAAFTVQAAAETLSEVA

One assay addresses T1, human PSMA (prostate specific membrane antigen), full-length, expressed on cells (human, UniProt Q04609 1-750). Put plainly: cell-based or functional assay.
On to B1, for which the “His-ZAP cell killing, human PSMA Average EC50” value is 0.017 nM.

Regarding B2, the “His-ZAP cell killing, human PSMA Average EC50” value came out at 0.015 nM.

On to B3, for which the “His-ZAP cell killing, human PSMA Average EC50” value stood at 0.012 nM.

For B4, the “His-ZAP cell killing, human PSMA Average EC50” value was found to be 0.014 nM.

B5: the “His-ZAP cell killing, human PSMA Average EC50” value came out at 0.01 nM.

As for B6, the “His-ZAP cell killing, human PSMA Average EC50” value was found to be 0.0057 nM.

Consider B7, for which the “His-ZAP cell killing, human PSMA Average EC50” value was determined as 0.02 nM.

Consider B8, for which the “His-ZAP cell killing, human PSMA Average EC50” value was 0.015 nM.

Regarding B9, the “His-ZAP cell killing, human PSMA Average EC50” value stood at 0.0079 nM.

A further assay addresses cynomolgus PSMA, full-length, expressed on CHO cells (cynomolgus, UniProt A0A2K5VNZ0 1-750). Put plainly: cell-based or functional assay.
On to B1, for which the “His-ZAP cell killing, cyno PSMA Average EC50” value came out at 0.012 nM.

For B2, the “His-ZAP cell killing, cyno PSMA Average EC50” value was 0.011 nM.

Consider B10, for which the “His-ZAP cell killing, cyno PSMA Average EC50” value turned out to be 0.01 nM.

As for B11, the “His-ZAP cell killing, cyno PSMA Average EC50” value was 0.0078 nM.

Consider B12, for which the “His-ZAP cell killing, cyno PSMA Average EC50” value was 0.0086 nM.

For the molecule B13, the “His-ZAP cell killing, cyno PSMA Average EC50” value is 0.012 nM.

As to B3, the “His-ZAP cell killing, cyno PSMA Average EC50” value was 0.0056 nM.

As to B4, the “His-ZAP cell killing, cyno PSMA Average EC50” value is 0.013 nM.

Consider B5, for which the “His-ZAP cell killing, cyno PSMA Average EC50” value amounted to 0.0095 nM.

With B14, the “His-ZAP cell killing, cyno PSMA Average EC50” value was 0.011 nM.

In the case of B6, the “His-ZAP cell killing, cyno PSMA Average EC50” value came to 0.0058 nM.

Consider B15, for which the “His-ZAP cell killing, cyno PSMA Average EC50” value was found to be 0.011 nM.

In the case of B16, the “His-ZAP cell killing, cyno PSMA Average EC50” value turned out to be 0.009 nM.

For B7, the “His-ZAP cell killing, cyno PSMA Average EC50” value amounted to 0.011 nM.

Consider B8, for which the “His-ZAP cell killing, cyno PSMA Average EC50” value came out at 0.014 nM.

B9: the “His-ZAP cell killing, cyno PSMA Average EC50” value turned out to be 0.0081 nM.

The target in the next assay is T1, human PSMA (prostate specific membrane …). Put plainly: cell-based or functional assay. The source holds these as a separate data set.
Regarding B17, the “cytotoxicity on PSMA-DU145, 48 h, Mean IC50” value was greater than 300 nM.

Another assay has the same target. Put plainly: cell-based or functional assay. This is another data set of the same source.
For the molecule B17, the “PSMA-DU145 cytotoxicity assay (72 h), IC50” value was greater than 100 nM and the “PSMA-DU145 cytotoxicity assay (72 h), IC50 (toxin)” value was greater than 100 nM.

The target in a further assay is T2, recombinant human PSMA (R&D, cat. no. 4234-ZN) (human, UniProt Q04609 44-750).
T2 construct: also called rhPSMA; Recombinant PMSA
T2 sequence (Q04609 44-750 limits assumed): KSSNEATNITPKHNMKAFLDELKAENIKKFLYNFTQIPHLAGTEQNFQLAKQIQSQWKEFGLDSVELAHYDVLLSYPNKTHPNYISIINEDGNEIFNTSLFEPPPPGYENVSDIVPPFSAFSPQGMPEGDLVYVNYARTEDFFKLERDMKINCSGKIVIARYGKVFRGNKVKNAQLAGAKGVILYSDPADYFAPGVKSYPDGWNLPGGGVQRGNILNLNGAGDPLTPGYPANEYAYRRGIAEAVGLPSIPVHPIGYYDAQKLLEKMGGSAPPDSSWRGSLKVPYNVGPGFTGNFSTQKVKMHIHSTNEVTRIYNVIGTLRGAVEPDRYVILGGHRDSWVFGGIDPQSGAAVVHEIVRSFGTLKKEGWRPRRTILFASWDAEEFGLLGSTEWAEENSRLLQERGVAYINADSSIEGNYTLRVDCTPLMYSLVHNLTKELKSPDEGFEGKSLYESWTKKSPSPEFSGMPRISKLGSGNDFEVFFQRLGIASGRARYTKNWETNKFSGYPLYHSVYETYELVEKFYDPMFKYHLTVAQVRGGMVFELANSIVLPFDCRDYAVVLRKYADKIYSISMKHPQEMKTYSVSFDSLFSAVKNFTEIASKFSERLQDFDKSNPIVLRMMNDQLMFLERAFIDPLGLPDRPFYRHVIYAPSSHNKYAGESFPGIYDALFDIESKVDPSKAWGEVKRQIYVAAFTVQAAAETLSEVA
Put plainly: periprep/phage screen, rhPSMA.
Regarding B18, the binding result is reported as “no binding”.

For B19, the binding result is on record as “no binding”.

(Values after patent US20190023807A1 (CRESCENDO BIOLOGICS, published 2019).)
